{
  "source": "patent US20260294251A1",
  "about": "“Method for Medical Imaging” (Integro Theranositcs, LLC, priority 2023, published 2026)",
  "key": {"[1]": {"test_system": "mouse breast cancer model", "conditions": "in vivo, iv"}, "[2]": {"assay": "Pharmacokinetics in the rat after single IV delivery", "excerpt": "(§4) Appropriate bioanalytical methods were developed and validated to measure LS301 concentrations in rat plasma (LC-MS/MS) and various dosing formulations (HPLC-UV, UPLC) per good laboratory practice (GLP) regulations."}, "[3]": {"test_system": "respiratory system functional parameters", "assay": "Respiratory safety pharmacology after single IV administration", "type": "in vivo, Sprague-Dawley rats", "conditions": "single IV up to 20 mg/kg, up to 24 hours", "description": "(§1) Results from safety pharmacology studies further support the potential safety of L301 and LS301-IT."}, "[4]": {"assay": "Toxicokinetics at the NOAEL in the rat toxicity study", "type": "in vivo", "conditions": "plasma, iv, 20 mg/kg, Day 1, at NOAEL 20 mg/kg; for AUC(0-t) at 48 h: read-out: AUC0-48h; for C0: read-out: Co", "experimental": "In this study, the NOAEL was considered 20 mg/kg. The corresponding AUC0-48h and Co of LS301 at the established NOAEL on Day 1 were 14200 h*ng/ml and 69900 ng/mL for males and 14900 h*ng/mL and 98800 ng/mL for females, respectively. Therefore, the NOAEL of 20 mg/kg is equivalent to a 3.226 mg/kg human dose."}, "[5]": {"target": "human Ether-à-go-go related gene (hERG) (Homo sapiens, UniProt Q12809)", "sequence (Q12809 whole entry)": "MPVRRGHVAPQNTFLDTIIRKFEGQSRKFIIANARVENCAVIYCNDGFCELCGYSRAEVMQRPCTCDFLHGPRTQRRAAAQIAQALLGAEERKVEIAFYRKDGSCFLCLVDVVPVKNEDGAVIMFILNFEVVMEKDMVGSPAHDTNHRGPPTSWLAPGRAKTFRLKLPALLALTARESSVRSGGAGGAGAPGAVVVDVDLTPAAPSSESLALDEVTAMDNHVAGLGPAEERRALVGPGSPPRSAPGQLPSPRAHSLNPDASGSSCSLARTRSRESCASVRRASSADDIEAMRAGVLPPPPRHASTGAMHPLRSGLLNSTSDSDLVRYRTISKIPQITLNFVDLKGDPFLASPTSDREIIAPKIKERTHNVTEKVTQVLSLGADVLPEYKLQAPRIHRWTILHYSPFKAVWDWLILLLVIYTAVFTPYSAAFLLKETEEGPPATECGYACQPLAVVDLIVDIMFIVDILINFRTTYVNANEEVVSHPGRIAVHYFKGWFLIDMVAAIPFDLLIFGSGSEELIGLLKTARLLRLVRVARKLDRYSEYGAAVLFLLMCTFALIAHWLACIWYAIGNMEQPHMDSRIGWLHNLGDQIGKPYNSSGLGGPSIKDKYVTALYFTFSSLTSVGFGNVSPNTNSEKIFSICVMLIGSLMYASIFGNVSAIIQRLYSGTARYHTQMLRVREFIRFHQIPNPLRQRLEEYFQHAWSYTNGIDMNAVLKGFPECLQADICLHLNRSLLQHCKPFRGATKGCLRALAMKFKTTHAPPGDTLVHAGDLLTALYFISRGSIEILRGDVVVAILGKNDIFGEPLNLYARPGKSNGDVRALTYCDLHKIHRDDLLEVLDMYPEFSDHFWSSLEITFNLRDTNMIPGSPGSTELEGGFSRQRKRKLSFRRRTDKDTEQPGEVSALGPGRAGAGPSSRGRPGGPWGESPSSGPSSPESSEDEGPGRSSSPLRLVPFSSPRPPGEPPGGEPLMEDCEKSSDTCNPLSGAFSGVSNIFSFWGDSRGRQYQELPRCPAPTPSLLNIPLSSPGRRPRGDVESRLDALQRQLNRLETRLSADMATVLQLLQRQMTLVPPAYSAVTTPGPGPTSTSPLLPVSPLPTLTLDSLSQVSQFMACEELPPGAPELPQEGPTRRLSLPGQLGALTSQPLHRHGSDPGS", "assay": "human Ether-à-go-go related gene (hERG) assay", "type": "cell-based", "description": "as §1"}, "[6]": {"assay": "Single IV dose toxicity study in rats", "type": "in vivo, rat", "conditions": "rat, in vivo, iv; for selectivity ratio: starting dose 0.025 mg/kg, read-out: safety margin", "description": "(§2) Therefore, the changes were considered non-adverse."}, "rats": {"test_system": "rats", "assay": "Single IV dose toxicity study in rats", "type": "in vivo, rat", "description": "as §2"}, "tumors [7]": {"test_system": "tumors", "conditions": "mouse, in vivo, iv"}, "male rats": {"test_system": "male rats", "assay": "In-vivo safety pharmacology (functional observation battery) in male rats", "parameters": "species or system rat", "description": "as §1"}, "cardiovascular function": {"test_system": "cardiovascular function", "assay": "Cardiovascular safety pharmacology after single IV administration", "type": "in vivo, rat", "conditions": "rats, single IV up to 20 mg/kg, up to 24 hours", "description": "as §1"}, "tumors [8]": {"test_system": "tumors", "assay": "Proof of concept imaging and biodistribution in mice after single IV delivery"}, "[9]": {"test_system": "Wolff-Bloom-Litton Chinese hamster ovary (CHO-WBL) cells", "assay": "Chromosomal aberration test in CHO-WBL cells", "type": "cell-based", "conditions": "with and without an S9 activation system", "experimental": "(§3) LS301 was negative for inducing structural/numerical chromosomal aberrations in Wolff-Bloom-Litton Chinese hamster ovary (CHO-WBL) cells with and without an S9 activation system. In a previous study, the potential for LS301 to cause genotoxicity was evaluated in a GLP bacterial mutagenicity (Ames) test in 4 strains of Salmonella typhimurium (TA100, TA1535, TA98, TA1537) and Escherichia coli (WP2uvrA) at doses up to 1000 μg/plate. The results were negative for LS301 mutagenicity."}, "[10]": {"conditions": "rat, in vivo, iv", "excerpt": "as §4"}, "[11]": {"test_system": "Salmonella typhimurium (TA100, TA1535, TA98, TA1537) and Escherichia coli (WP2uvrA)", "assay": "GLP bacterial mutagenicity (Ames) test", "type": "cell-based", "conditions": "doses up to 1000 μg/plate; previous study", "experimental": "as §3"}},
  "note": "Where two headings read alike, the source gives them in different places. Positions of bridges follow the written chain, without caps; N, C: chain ends. Non-standard residues stand in square brackets, D forms with d. Residues, ends and D or L forms follow the SMILES beside them. *: point of attachment. X1 = CC1(C)C(/C=C/C=C/C=C/C=C2/N(CCC(=O)*)c3ccc4ccccc4c3C2(C)C)=[N+](CCC(=O)[O-])c2ccc3ccccc3c21",
  "data": [
    {"smiles": "CC1(C)C(/C=C/C=C/C=C/C=C2/N(CCC(=O)N[C@@H]3CSSC[C@@H](C(=O)N[C@@H](CCCCN)C(=O)O)NC(=O)[C@@H]4CCCN4C(=O)[C@H](CO)NC(=O)[C@H](CC(=O)O)NC(=O)[C@H](CCCNC(=N)N)NC(=O)CNC3=O)c3ccc4ccccc4c3C2(C)C)=[N+](CCC(=O)[O-])c2ccc3ccccc3c21", "note": "[LS301, cypate-cyclo(Cys-Gly-Arg-Asp-Ser-Pro-Cys)-Lys-OH] (X1-[dC]GRDSPCK-OH; disulfide 1-7)", "values": [
      {"measurement": "tissue distribution", "setting": "[1]", "result": "distributes and accumulates in tumor and non-tumor tissues, especially the liver and kidneys"},
      {"measurement": "half-life", "setting": "[2]; rat", "result": "fewer than five hours"},
      {"measurement": "systemic exposure versus dose", "setting": "[2]; rat", "result": "increased proportionally with dose"},
      {"measurement": "difference in systemic exposure between male and female", "setting": "[2]; rats", "result": "No differences were seen"},
      {"measurement": "respiratory system functional parameters (tidal volume, respiratory rate, derived minute volume)", "setting": "[3]", "result": "did not affect respiratory system functional parameters"},
      {"measurement": "AUC(0-t) at 48 h", "setting": "[4]; females", "result": 14.9, "unit": "µg·h/mL"},
      {"measurement": "C0", "setting": "[4]; females", "result": 98.8, "unit": "µg/mL"},
      {"measurement": "AUC(0-t) at 48 h", "setting": "[4]; males", "result": 14.2, "unit": "µg·h/mL"},
      {"measurement": "C0", "setting": "[4]; males", "result": 69.9, "unit": "µg/mL"},
      {"measurement": "IC50", "setting": "[5]", "result": "> 9.98", "unit": "µM"},
      {"measurement": "NOAEL", "setting": "[6]; correction factor of 0.88, read-out: corrected NOAEL", "result": 17.6, "unit": "mg/kg"},
      {"measurement": "NOAEL", "setting": "[6]; single IV, read-out: NOAEL", "result": 20, "unit": "mg/kg"},
      {"measurement": "selectivity ratio", "setting": "[6]; NOAEL 20 mg/kg", "result": 129},
      {"measurement": "selectivity ratio", "setting": "[6]; corrected NOAEL 17.6 mg/kg", "result": 114},
      {"measurement": "mortalities or changes in body weight, food consumption, ophthalmology, hematology, coagulation, and urinalysis", "setting": "rats; rats, up to 20 mg/kg LS301", "result": "no mortalities or test article-related changes"},
      {"measurement": "tolerability", "setting": "rats; rats, up to 20 mg/kg LS301", "result": "tolerated LS301 and LS301-IT well"},
      {"measurement": "resolution of discoloration", "setting": "rats; ≥10 mg/kg, rat toxicity study", "result": "resolved on Day 15"},
      {"measurement": "tumor uptake (biodistribution)", "setting": "tumors [7]", "result": "high uptake in tumors"},
      {"measurement": "mortality", "setting": "male rats; male rats, up to 20 mg/kg", "result": "No mortalities"},
      {"measurement": "functional observation battery (FOB) parameters", "setting": "male rats; male rats, up to 20 mg/kg, motor activity, behavior, coordination, reflexes, body temperature", "result": "no effects"},
      {"measurement": "discoloration (green)", "setting": "male rats; male rats, ≥10 mg/kg", "result": "transient LS301-related discoloration (green)"},
      {"measurement": "effects on central nervous, cardiovascular, and respiratory functions", "setting": "male rats; rats, doses up to 20 mg/kg", "result": "no significant effects"},
      {"measurement": "tolerability", "setting": "male rats; rats, doses up to 20 mg/kg", "result": "Rats tolerated LS301 well"},
      {"measurement": "cardiovascular function", "setting": "cardiovascular function", "result": "did not affect cardiovascular function"},
      {"measurement": "accumulation in other tissues", "setting": "tumors [8]", "result": "accumulated in other tissues, especially the excretory organs of the liver and kidneys"},
      {"measurement": "binding and accumulation in tumors", "setting": "tumors [8]", "result": "could bind and accumulate in tumors"},
      {"measurement": "tumor-to-background ratio", "setting": "tumors [8]; four hours post-injection", "result": "clear tumor-to-background ratio"},
      {"measurement": "structural/numerical chromosomal aberrations", "setting": "[9]", "result": "negative"},
      {"measurement": "tissue distribution", "setting": "[10]", "result": "widely distributed to tissues"},
      {"measurement": "volume of distribution", "setting": "[10]", "result": "greater than the total volume of body water in humans"},
      {"measurement": "mutagenicity (Ames)", "setting": "[11]", "result": "negative"}
    ]}
  ]
}
